Reference: the supplement of paper PMC9112550, “Optimization of the antimicrobial peptide Bac7 by deep mutational scanning” (BMC Biology, 2022)

Test system: Escherichia coli TOP10
Assay: shrunken log2 fold change of peptide-encoding DNA abundance (4.5 h post-induction vs induction); higher = less antimicrobial activity (less host growth inhibition)
Conditions: time post-induction: 4.5 h; library: site-saturation at positions 5, 18, 19, 20
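Further: peptides expressed intracellularly from a pBAD plasmid library in pooled LB shake-flask culture, induced with 0.3% L-arabinose, DNA abundance read by NGS, three biological replicates, DESeq2 with apeglm shrinkage.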

Sequence	shrunken log2 fold change
RRIRCRPPRLPRPRPRPDVGPRP	-0.0874
RRIRPRPPRLPRPRPRPGPSPRP	0.0312
RRIRYRPPRLPRPRPRPNMGPRP	-0.00101
RRIRERPPRLPRPRPRPKVWPRP	0.332
RRIRDRPPRLPRPRPRPRYIPRP	-0.356
RRIRDRPPRLPRPRPRPMRCPRP	0.147
RRIRKRPPRLPRPRPRPVWLPRP	0.192
RRIRMRPPRLPRPRPRPRVPPRP	0.83
RRIRTRPPRLPRPRPRPLQAPRP	0.00547
RRIRWRPPRLPRPRPRPQHMPRP	-0.459
RRIRTRPPRLPRPRPRPTGYPRP	0.000642
RRIRHRPPRLPRPRPRPDMPPRP	0.144
RRIRFRPPRLPRPRPRPQNSPRP	-0.568
RRIRVRPPRLPRPRPRPRWIPRP	-0.0863
RRIRCRPPRLPRPRPRPKYTPRP	-0.511
RRIRHRPPRLPRPRPRPITRPRP	-0.0356
RRIRSRPPRLPRPRPRPGCMPRP	0.0917
RRIRQRPPRLPRPRPRPVVFPRP	1.25
RRIRDRPPRLPRPRPRPMYVPRP	-0.243
RRIRKRPPRLPRPRPRPPGPPRP	1.04
RRIRTRPPRLPRPRPRPDVDPRP	-0.0342
RRIRNRPPRLPRPRPRPFTEPRP	-0.236
RRIRRRPPRLPRPRPRPHPSPRP	-0.0167
RRIRARPPRLPRPRPRPRDCPRP	0.391
RRIRCRPPRLPRPRPRPNRIPRP	-0.111

Sequence	shrunken log2 fold change
RRIRRRPPRLPRPRPRPNPRPRP	1.11
RRIRERPPRLPRPRPRPLFLPRP	-0.306
RRIRGRPPRLPRPRPRPWMPPRP	0.105
RRIRGRPPRLPRPRPRPTLVPRP	1.87
RRIRRRPPRLPRPRPRPRWPPRP	0.598
RRIRTRPPRLPRPRPRPPAFPRP	-0.216
RRIRKRPPRLPRPRPRPNIPPRP	-0.237
RRIRNRPPRLPRPRPRPKRPPRP	0.589
RRIRVRPPRLPRPRPRPMHHPRP	-0.257
RRIRERPPRLPRPRPRPGDNPRP	-0.0779
RRIRRRPPRLPRPRPRPGACPRP	0.475
RRIRLRPPRLPRPRPRPWYRPRP	-0.3
RRIRRRPPRLPRPRPRPPEHPRP	0.14
RRIRIRPPRLPRPRPRPVDMPRP	-0.51
RRIRHRPPRLPRPRPRPFYHPRP	-0.126
RRIRYRPPRLPRPRPRPYQIPRP	-0.659
RRIRERPPRLPRPRPRPAQTPRP	0.0281
RRIRKRPPRLPRPRPRPGVEPRP	1.09
RRIRYRPPRLPRPRPRPAGDPRP	-0.232
RRIRPRPPRLPRPRPRPPLHPRP	0.21
RRIRRRPPRLPRPRPRPKSGPRP	-0.0499
RRIRWRPPRLPRPRPRPTEIPRP	-0.22
RRIRMRPPRLPRPRPRPTPPPRP	1.17
RRIRIRPPRLPRPRPRPSASPRP	0.0632
RRIRVRPPRLPRPRPRPYKQPRP	-0.00648

Sequence	shrunken log2 fold change
RRIRLRPPRLPRPRPRPQSNPRP	-0.0786
RRIRKRPPRLPRPRPRPSWYPRP	-0.519
RRIRPRPPRLPRPRPRPNGDPRP	-0.0945
RRIRKRPPRLPRPRPRPGHWPRP	0.2
RRIRDRPPRLPRPRPRPSEPPRP	0.06
RRIRRRPPRLPRPRPRPPFYPRP	0.463
RRIRRRPPRLPRPRPRPMFAPRP	0.24
RRIRCRPPRLPRPRPRPMHQPRP	-0.0626
RRIRFRPPRLPRPRPRPKFNPRP	-0.588
RRIRSRPPRLPRPRPRPDESPRP	-0.264
RRIRGRPPRLPRPRPRPPCCPRP	0.478
RRIRWRPPRLPRPRPRPTTVPRP	0.11
RRIRYRPPRLPRPRPRPACPPRP	-0.0352
RRIRERPPRLPRPRPRPTYTPRP	-0.756
RRIRHRPPRLPRPRPRPHPFPRP	-0.3
RRIRRRPPRLPRPRPRPVQQPRP	0.213
RRIRERPPRLPRPRPRPMFPPRP	-0.475
RRIRNRPPRLPRPRPRPFMLPRP	-1.17
RRIRVRPPRLPRPRPRPWNYPRP	-0.0949
RRIRFRPPRLPRPRPRPMTYPRP	-0.0939
RRIRKRPPRLPRPRPRPWPAPRP	0.376
RRIRSRPPRLPRPRPRPCCVPRP	0.0729
RRIRIRPPRLPRPRPRPQYYPRP	-1.28
RRIRRRPPRLPRPRPRPMDWPRP	0.516
RRIRKRPPRLPRPRPRPKRNPRP	0.689

Sequence	shrunken log2 fold change
RRIRLRPPRLPRPRPRPFTQPRP	-0.337
RRIRERPPRLPRPRPRPLVHPRP	-0.158
RRIRPRPPRLPRPRPRPYACPRP	-0.921
RRIRQRPPRLPRPRPRPWMCPRP	0.00702
RRIRNRPPRLPRPRPRPYHVPRP	-0.116
RRIRFRPPRLPRPRPRPWWYPRP	-0.238
RRIRNRPPRLPRPRPRPNFPPRP	-0.0305
RRIRGRPPRLPRPRPRPKCRPRP	0.299
RRIRGRPPRLPRPRPRPPDNPRP	0.795
RRIRCRPPRLPRPRPRPHRVPRP	0.135
RRIRIRPPRLPRPRPRPHPDPRP	-0.45
RRIRWRPPRLPRPRPRPREGPRP	1.28
RRIRQRPPRLPRPRPRPWGAPRP	0.351
RRIRCRPPRLPRPRPRPMLNPRP	-0.38
RRIRIRPPRLPRPRPRPVTEPRP	-0.109
RRIRDRPPRLPRPRPRPCFQPRP	-0.0196
RRIRTRPPRLPRPRPRPGKHPRP	-0.803
RRIRARPPRLPRPRPRPWHCPRP	-0.16
RRIRNRPPRLPRPRPRPYLGPRP	-0.21
RRIRRRPPRLPRPRPRPKWHPRP	0.593
RRIRRRPPRLPRPRPRPVAQPRP	0.324
RRIRHRPPRLPRPRPRPSQTPRP	0.067
RRIRRRPPRLPRPRPRPQRPPRP	0.391
RRIRIRPPRLPRPRPRPHLMPRP	-1.31
RRIRGRPPRLPRPRPRPRESPRP	1.26

Sequence	shrunken log2 fold change
RRIRTRPPRLPRPRPRPMPKPRP	0.116
RRIRSRPPRLPRPRPRPYDKPRP	0.0507
RRIRIRPPRLPRPRPRPIPHPRP	-0.297
RRIRKRPPRLPRPRPRPIIWPRP	0.0809
RRIRCRPPRLPRPRPRPNNEPRP	-0.529
RRIRFRPPRLPRPRPRPPQDPRP	0.303
RRIRSRPPRLPRPRPRPIYCPRP	-0.876
RRIRPRPPRLPRPRPRPYQLPRP	-0.441
RRIRNRPPRLPRPRPRPTTWPRP	-0.246
RRIRPRPPRLPRPRPRPEHDPRP	-0.00589
RRIRTRPPRLPRPRPRPPKPPRP	0.304
RRIRPRPPRLPRPRPRPGKMPRP	0.0379
RRIRTRPPRLPRPRPRPTKKPRP	0.0786
RRIRCRPPRLPRPRPRPNKFPRP	-0.472
RRIRVRPPRLPRPRPRPLKHPRP	-0.486
RRIRIRPPRLPRPRPRPLDFPRP	0.0619
RRIRQRPPRLPRPRPRPPLLPRP	-0.114
RRIRGRPPRLPRPRPRPMVNPRP	0.744
RRIRMRPPRLPRPRPRPVMRPRP	0.305
RRIRPRPPRLPRPRPRPRLNPRP	0.307
RRIRNRPPRLPRPRPRPRLEPRP	0.317
RRIRTRPPRLPRPRPRPIRCPRP	0.0185
RRIRHRPPRLPRPRPRPYIHPRP	-0.322
RRIRARPPRLPRPRPRPDNGPRP	-0.19
RRIRLRPPRLPRPRPRPFTTPRP	0.0966

Sequence	shrunken log2 fold change
RRIRGRPPRLPRPRPRPTPEPRP	0.917
RRIRARPPRLPRPRPRPPWNPRP	0.427
RRIRRRPPRLPRPRPRPEWMPRP	0.126
RRIRERPPRLPRPRPRPILKPRP	-0.401
RRIRGRPPRLPRPRPRPGPCPRP	0.854
RRIRCRPPRLPRPRPRPDIVPRP	-0.0875
RRIRMRPPRLPRPRPRPCPEPRP	0.123
RRIRARPPRLPRPRPRPTRTPRP	0.653
RRIRFRPPRLPRPRPRPERRPRP	0.166
RRIRWRPPRLPRPRPRPAWSPRP	0.265
RRIRGRPPRLPRPRPRPIDFPRP	-0.0475
RRIRDRPPRLPRPRPRPMLVPRP	0.116
RRIRPRPPRLPRPRPRPDHAPRP	0.218
RRIRCRPPRLPRPRPRPIIAPRP	-0.494
RRIRRRPPRLPRPRPRPAYYPRP	0.0681
RRIRPRPPRLPRPRPRPFLLPRP	-0.516
RRIRVRPPRLPRPRPRPVCQPRP	0.0508
RRIRVRPPRLPRPRPRPMRLPRP	0.617
RRIRMRPPRLPRPRPRPRPLPRP	1.17
RRIRIRPPRLPRPRPRPQRRPRP	0.19
RRIRHRPPRLPRPRPRPKSAPRP	-0.0502
RRIRSRPPRLPRPRPRPFMSPRP	0.00606
RRIRNRPPRLPRPRPRPCIDPRP	0.027
RRIRWRPPRLPRPRPRPIWVPRP	-0.0257
RRIRERPPRLPRPRPRPFISPRP	-0.0623
